Assay results taken from PMC3678129.

Substrate: CCn1c(=NN=c2sc3cc(S(=O)(=O)O)ccc3n2CC)sc2cc(S(=O)(=O)O)ccc21
Assay: purified protein
Details: H2O2 25 mM (saturating), no added Ca2+, 100 mM Tris-HCl pH 7.0

B1: Euphorbia characias latex peroxidase (ELP) (Euphorbia characias) (protein)
chain: QTKPPIVNGLSWTFYKSSCPKVESIIQKELKKLFKKDVEQAAGLLRLHFHDCFVLGCDGSVLLNGSAGGPSEQSELPNLSLRKQAFKIVNDLRALVHKECGPVVSCSDIVAIAARDSVVLTGGPKYDVPLGRRDGVKFAEVNATFEHLVGPTANVTTILAKLARKGLDTTDAVSLSGGHTIGIGHCTSFTERLYPSQDPTLDKTFANNLKRTCPNVNTENSTFLDLRTPNEFDNRYYVDLMNRQGLFTSDQDLYTDKRTRQIVIDFAVNQTLFYEKFIIGMIKMGQLEVVTGNQGEIRNDCSFRNSDNYLVSVTDEESGSSSELR
Km: 550 ± 20 µM
kcat: 170 ± 11 s⁻¹
kcat/Km: 309000 M⁻¹ s⁻¹
